Source: PMC6325624, “A novel isoprimeverose‐producing enzyme from Phaeoacremonium minimum is active with low concentrations of xyloglucan oligosaccharides” (FEBS Open Bio, 2018)

How the values were obtained:
[1] = tested on: OC[C@@H](O)[C@@H](O[C@@H]1O[C@H](CO[C@H]2OC[C@@H](O)[C@H](O)[C@H]2O)[C@@H](O[C@@H]2O[C@H](CO[C@H]3OC[C@@H](O)[C@H](O)[C@H]3O)[C@@H](O[C@@H]3O[C@H](CO[C@H]4OC[C@@H](O)[C@H](O)[C@H]4O)[C@@H](O)[C@H](O)[C@H]3O)[C@H](O)[C@H]2O)[C@H](O)[C@H]1O)[C@H](O)[C@@H](O)CO; assay: bicinchoninate reducing-sugar assay, Michaelis-Menten nonlinear regression; format: biochemical, Aspergillus oryzae; details: 50 mM sodium phosphate pH 4.5, 60 °C, 5 min, 0.0625-4 mM substrate
Excerpt: bicinchoninate reducing-sugar assay, Michaelis-Menten nonlinear regression on IpeA

[2] = substrate: OC[C@@H](O)[C@@H](O[C@@H]1O[C@H](CO[C@H]2OC[C@@H](O)[C@H](O)[C@H]2O)[C@@H](O[C@@H]2O[C@H](CO[C@H]3OC[C@@H](O)[C@H](O)[C@H]3O)[C@@H](O[C@@H]3O[C@H](CO[C@H]4OC[C@@H](O)[C@H](O)[C@H]4O)[C@@H](O)[C@H](O)[C@H]3O)[C@H](O)[C@H]2O)[C@H](O)[C@H]1O)[C@H](O)[C@@H](O)CO; assay: as above; format: biochemical, Phaeoacremonium minimum; details: 50 mM sodium phosphate pH 4.5, 60 °C, 5 min, 0.0125-0.8 mM substrate
Excerpt: bicinchoninate reducing-sugar assay, Michaelis-Menten nonlinear regression on PmIPase

Molecule | Km [1] [µM] | kcat [1] [s⁻¹] | kcat/Km [1] [M⁻¹ s⁻¹] | Km [2] [µM] | kcat [2] [s⁻¹] | kcat/Km [2] [M⁻¹ s⁻¹]
IpeA (Aspergillus oryzae RIB40) | 629 ± 51 | 586 ± 16 | 931000 | – | – | –
PmIPase (Phaeoacremonium minimum UCRPA7) (protein, synthetic codon-optimized gene, secreted from Pichia pastoris X-33 (pGAPZalpha A), Myc and His6 tags kept; full length 777 aa (2334 bp), predicted 24-aa N-terminal signal peptide absent from calculated mass 85 kDa; N-glycosylated, ~101 kDa on SDS/PAGE; putative nucleophile Asp-299, acid/base Glu-523) VPVYKNPNATVDDRIADLLKRMTIEDKTAQLIQGDISNWINTTDGTFNATGLEWNMKYRASMFYVGYPTNWSTISNGVKIAQDYLVHNTTLGIPALVQSEGIHGFLIPNATIFNSPIAQACSWNPELVEKMGKAIAQESLALGVNNLFAPLGDLARELRFGRVEETYGEDGYLSGEMAYSYVKGLQSGNVAAMVKHFAAFATPEQGVNTAPVHGGERELLTTYLPSYKRAIIDAGAYTIMSAYHCYDGVPAVADYHVLTEILRDSWGFKYFVMSDAGGTDRLCNSFGMCEASPIDSEAVTSMVLPSGNDVEMGGGSYNFQKIPEMVAAGKLDEKLVDQAVSRVLRVKFEMGLFEKPYQGVAEDEASKYINTKETIELARQLDTESIVLLENHEDLLPLKKSAKIAVIGPMAHGYMNYGDYVPYRSQYRGVTPLDGIRAAVDDESSVSYAQGCERWSNDESGFPEAIAAAEGADVAVVVVGTWSRDQGELWQNLNATTGEHIDVASLNLVGAMPRLVSAIINTGKPTVVVFSSGKPVTEPWISTNASALVQQFYPSEQGGNALADVLFGDYNPSGRLSVSFPYDVGTTPIYYDYLNSARAWPNPGHAYPNGTLVFGSNYVLNTPLPLYDFGYGKSYSTFSYSEITLSKSTASSSDTVTVSVDVTNNSTRDGTEVVQLYVKDLVSSVVVPNKQLKGFAKIPIAAGATETVKLDLKVADLGLWDIKYNYVVEPGNFTIFIGSSSADFRANTTLTVV | – | – | – | 47.5 ± 4.8 | 101 ± 3 | 2.13e+06
